Data taken from the DeepSol protein solubility set.

Test: soluble on expression in E. coli; label from the status in PepcDB or PDB records

Sequence: MDQLFYNGPPDYVEIEDRAITTEPGASIQAAPGAIWMEALPAIEGIPAGLEYLAYLDTVMVHQVKEVLEILTGWESKNKYAIRNKNGQQCYYAFEESNAWERQCCGSQRGFTMHIVDNFNKNVLIVKRELRCCADSFCGCLLGLQNICTIESLSTGLLGTVLQGYGCTNSFYNILDKDGNLIFLVDGQGCCTSCCCEDKDFTIKTPDSSVPIGSITKKWGGLLREAFTDADTFAVTFPIDLDVKLKAILLGATFLIDFVEFENNN
- soluble on expression in E. coli: not soluble

Sequence: SVLPETPVPFKSGTGAIDNDTVYIGLGSAGTAWYKLDTQAKDKKWTALAAFPGGPRDQATSAFIDGNLYVFGGIGKNSEGLTQVFNDVHKYNPKTNSWVKLMSHAPMGMAGHVTFVHNGKAYVTGGVNQNIFNGYFEDLNEAGKDSTAIDKINAHYFDKKAEDYFFNKFLLSFDPSTQQWSYAGESPWYGTAGAAVVNKGDKTWLINGEAKPGLRTDAVFELDFTGNNLKWNKLAPVSSPDGVAGGFAGISNDSLIFAGGAGFKGSRENYQNGKNYAHEGLKKSYSTDIHLWHNGKWDKSGELSQGRAYGVSLPWNNSLLIIGGETAGGKAVTDSVLITVKDNKVTVQNLEHHHHHH
- soluble on expression in E. coli: soluble

Sequence: GSMALTQVETEIVPVSVDGETLTVEAVRRVAEERATVDVPAESIAKAQKSREIFEGIAEQNIPIYGVTTGYGEMIYMQVDKSKEVELQTNLVRSHSAGVGPLFAEDEARAIVAARLNTLAKGHSAVRPIILERLAQYLNEGITPAIPEIGSLGASGDLAPLSHVASTLIGEGYVLRDGRPVETAQVLAERGIEPLELRFKEGLALINGTSGMTGLGSLVVGRALEQAQQAEIVTALLIEAVRGSTSPFLAEGHDIARPHEGQIDTAANMRALMRGSGLTVEHADLRRELQKDKEAGKDVQRSEIYLQKAYSLRAIPQVVGAVRDTLYHARHKLRIELNSANDNPLFFEGKEIFHGANFHGQPIAFAMDFVTIALTQLGVLAERQINRVLNRHLSYGLPEFLVSGDPGLHSGFAGAQYPATALVAENRTIGPASTQSVPSNGDNQDVVSMGLISARNARRVLSNNNKILAVEYLAAAQAVDISGRFDGLSPAAKATYEAVRRLVPTLGVDRYMADDIELVADALSRGEFLRAIARETDIQLR
- soluble on expression in E. coli: soluble

Sequence: MGSDKIHHHHHHMDSSCSPKHGWFDSVAESYAQQRPYYPESLFTWISSKAASHQRCWDVACGSGQASLGLARHFDRVDASDLSPAQVAAAPAHSNIHYQVAAAEDSGFPNACMDAIVVAAAIHWLDVPRFNEEALKVARPGGLMVWVGYDPPQGAPPALQLWLDQLYSERLSSWWPPQRHHVDNHYQNLPFPTISKTLPQELCISLKWSCEQLIGYIGTWSALRKATQEGHDLLPQLSMELQRLWPADQKTIPLIFPLMGRWGYLAR
- soluble on expression in E. coli: not soluble

Sequence: MNVINETANVLKLETGSVTSAKGFSAVGIHTGVKRKRKDLGAIVCEVPASSAAVYTLNKVQAAPLKVTQESIAVEGKLQAMIVNSGIANACTGKRGLDDAYTMRAVGAETFHIPEHYVAVTSTGVIGEFLPMDVITNGIRQLKPEATIEGAHAFNEAILTTDTVEKHTCYQTIVNGKTVTVGGVAKGSGMIHPNMATMLSFVTTDANIDHGHLQGALSAITNETFNRITVDGDTSTNDMVVVMASGLAENEALTPEHPDWANFYKALQLACEDLAKQIARDGEGATKLIEVEVTGAANDQEAGMVAKQIVGSDLVKTAIYGADANWGRIICAIGYSGCEVNQETIDIAIGPIVTLKQSEPTGFSEEEATAYLKEADPVKISVNLHIGNGTGKAWGCDLTYDYVRINAGYRTLEHHHHHH
- soluble on expression in E. coli: not soluble

Sequence: MGSDKIHHHHHHMLFLMDFSMQTHAQTGDITPVVFDQFFQNYYLINPASSDSTGKIQVNIGNRSLIGLFDGVNRLYVDGNVRINHRTAMQYSRLGALVIAYNDGAFINRTRAYLRYSWSTSISERASISAGISAGMVKYTFLASQAGGGGSSTSFDGNAGLWYIRPKLKIGISYQQFTRSELTPVNQTFLLTPYINVNAVYASYLSAHVLLTTHVFYRYESGSVFDIQAAPVFLFNDLFEAGINLRYKRGVAILFGLKSIHVGTGNIRFMGSFMLSTRKLANTLDNAFELSAGYSF
- soluble on expression in E. coli: not soluble

Sequence: MTVIQTHGLTKRYGRVVAVEDLNLSVREGEVYGLLGPNGSGKTTTILMLLGLTEPTSGEARVLGFDPMREPLKVKSRVGYLPDQVGFYGELSAWENLRYTTRLLGLPDKEAEARIEEVLKRMGLWEVRDRKVAAFSRGMRQRLGLAEVLLKRPKVAILDEPTLGLDPEAAREFLDLIKGLKAEGITVLLSSHLLHQVQEVCDRVGLFHKGRLALEGTVAELAHRVLGGQYEILLEGAPGLEGALEAVEGVSRVEAEGGRYRVLATRDLRPELARLVVERGPLYALSLRQPSLDEIYAHYFKEVAHAA
- soluble on expression in E. coli: soluble

Sequence: MVLAERDDRLLGFASFRRTEDFAHYQPQRADAPRAYICEAVVHPAAAGQGLGSALLEAVLAQLADEGIEDVYIDRHEENLASAGMMRKAGFV
- soluble on expression in E. coli: soluble

Sequence: MSEEIISKKPSKPQASRKGKRAWRKNIDIQEIEQNLQDKRDEEIVLGKEVTDDFVIDDTPSSKSGKLPKKLKTKEILTNKSKIPALTNQRHQKKGENTIQGVKKTDLLRLIQLNGGKFKSEDKYVNRLEQDGIVNGSSQDLWDDTDNNEKKKIPDFMKSTAEVTKASVVPKTLKVNPIKITSNELTDKKIHAGKSYNPSLESWKELINQEYDIEYKRELTRQQIEEHRNKIKELMITLDDNMLSDSDDDEDDEDNDKVEEEEQLNANGEKDYSLSINKPNKIKIKTKTKRNKELKHKERVKLEQEIKDLKKQLKDLSNLDEILEKQAVKDQSQPNEKKRKRREKLFKYSLVETPLEVKLSDELSGNLKNLKPEGNLYYDQMLSLQSSGKIESRVPVNKKRKYTKKITEKWTYKDFK
- soluble on expression in E. coli: not soluble

Sequence: MSLATVPTRSGSPRQLTTKQTGDAWEAQARRWLEGKGLRFIAANVNERGGEIDLIMREGRTTVFIEVRYRRSALYGGAAASVTRSKQHKLLQTARLWLARHNGSFDTVDCRFDVVAFTGNEVEWIKDAFNDHSEGHHHHHH
- soluble on expression in E. coli: soluble

Sequence: MGSDKIHHHHHHSDFLNLTPYSEITAENFYQNEEDFRQAVNGAYEPLRNMYNTEEWNLGEAKSDNTTYIIHIAKSSLDGEDPDQFLETSTNGNVGTKYNNCYVIIGRCNRIISEIDQADFDAEAKSNLKGQALFLRAFCYFNLVQYFGGVPLHTTPSTVYEEAFKPRASVDEVYEQIMKDAQEASDLLPVKSRQEVGRVSKGSAQTLLGNVYMVLKRWAEAEQTLKEVVSSGEYELLADYGSIYSISNKNHKESIFEIQYMQDASLGQQSDFIYRFLPYMTNPSAITGTTPNPCPSNVDHGGFNTPTIDLINAYEKGDKRLDASIGMVEGKLTDSYALDATGVKSIVDYEPAPGITAYPFIKKYFHEHIKPYYTDDNWPVYRYAEVLLFLAEAINEQNRPDEAIHYLNDTFGQASIRGRAGLAPVKSQNVDALREAIYQERRIELAFENKRWTDLLRTGRAVEVMTRHGQKIKANPESYYWPDGVQPVANAYLFNPDKCLLPIPLREIDLNSELKQNPGY
- soluble on expression in E. coli: not soluble

Sequence: MGSDKIHHHHHHMIFKKMINEFKMEIKNNKSKINPIDVYRYSIFFRNYIESTAEDALKNGINLSLLEKSCLKESSKSLLGLKVQLKEALLEAMISYRFNGAGYILVKPKSEDEDLSKKVNSELPTGFKYLDFQKIINKRDSSYVEYLSNSKDPDDFERARVVKIDKSRVIIYENYDYVLGEQEPAYTQSLLLNICLLEQIYLEIEKRIRNYNFLFYKDEHLVGLVESLEIAKEEINVLANSKGKIFSTFFKAQEPNKSFQALSSVSDELSRELSKIKNTLNNDGIFYTASENARLEVIKYDLEFLKDAFELVKAKIGADTKEPLTRSFNEQVKGLGSSGKGDKSNYYDYLKGVQESVANACNLKLNKYYRLNMKFNELEALSYEQRLQKDNLLLDVYFKYLELIKNENLSDKAKENLKEQLSLVI
- soluble on expression in E. coli: not soluble

Sequence: MAETQFTRFPFQPFIIEAIKTLRFYKPTEIQERIIPGALRGESMVGQSQTGTGKTHAYLLPIMEKIKPERAEVQAVITAPTRELATQIYHETLKITKFCPKDRMIVARCLIGGTDKQKALEKLNVQPHIVIGTPGRINDFIREQALDVHTAHILVVDEADLMLDMGFITDVDQIAARMPKDLQMLVFSATIPEKLKPFLKKYMENPTFVHVLEHHHHHH
- soluble on expression in E. coli: soluble

Sequence: MKFVLAVHGTRGDVEPCAAVGVELRRRGHAVHMAVPPNLIEFVESAGLTGVAYGPDSDEQINTVAAFVRNLTRAQNPLNLARAVKELFVEGWAEMGTTLTTLADGADLVMTGQTYHGVAANVAEYYDIPAAALHHFPMQVNGQIAIPSIPTPATLVRATMKVSWRLYAYVSKDADRAQRRELGLPPAPAPAVRRLAERGAPEIQAYDPVFFPGLAAEWSDRRPFVGPLTMELHSEPNEELESWIAAGTPPIYFGFGSTPVQTPVQTLAMISDVCAQLGERALIYSPAANSTRIRHADHVKRVGLVNYSTILPKCRAVVHHGGAGTTAAGLRAGMPTLILWDVADQPIWAGAVQRLKVGSAKRFTNITRGSLLKELRSILAPECAARAREISTRMTRPTAAVTAAADLLEATARQTPGSTPSSSPGR
- soluble on expression in E. coli: not soluble

Sequence: MSEFSPLRRKILLGGAATAGLSLFPSFSFASQFAETPRKLALSNLHTGEELKTEYFNGRQYQSAELHKLNHLCRDFRRNESIEMDKRLFDQLSAIQNVIGCDTQVQIISGYRSPATNEMLRGKSHGGVAKKSLHMLGKAMDFRLEGVPLAEVRKAALSLKAGGVGYYPGSNFVHIDTGRVRFW
- soluble on expression in E. coli: not soluble

Sequence: SSTAGDGERGTVGQEDSAAARPFRFSPEPTLEDIRRLHAEFAAERDWEQFHQPRNLLLALVGEVGELAELFQWKSDTEPGPQAWPPKERAALQEELSDVLIYLVALAARCHVDLPQAVISKMDTNRQRYPVHLSRGSACKYTDLPRGTISENQAVGAGDPASELRDQAST
- soluble on expression in E. coli: soluble

Sequence: GKTMKMRKFTIADASLERSPGQEADISVGNLVDERHGGPITIGYGRYAPGQSLTETMAVDDVMIVLEGRLSVSTDGETVTAGPGEIVYMPKGETVTIRSHEEGALTAYVTYPHWRPAHA
- soluble on expression in E. coli: soluble

Sequence: MSLTEMLSTEDFDFDLPEELIAQTPLKDRASSRLLVVNKETGDMEDKHFHDILDELQPGDALVMNNTRVLPARLYGEKPETGGHLEVLLLTNTEGDTWETLIKPAKRAKVGTEIQFGDGRLKAVVKEELEHGGRIIEFKYDGIFLEILESLGEMPLPPYIKERLDDPDRYQTVYAEENGSAAAPTAGLHFTKELLEEIKAKGVHLVYLTLHVGLGTFRPVSVDNIEEHHMHSEFYRLTEEAAKQLNEVRQAGGRIVAVGTTSIRTLETIGTKFNGEIQADSGWTDIFITPGYQFKVVEAFSTNFHLPKSTLVMLVSAFAGKDLTLAAYQHAIEEKYRFFSFGDAMFIKEGGSHHHHHH
- soluble on expression in E. coli: soluble

Sequence: MRALILGGTGEGRDVAAILHVAGWRVTSSLAGRVSNPKLPVGEVRIGGFGGPAGLTQWLLREGVEVIIDATHPFAERISASAAEASRATGIPLIALHRPEWKPRPRDRWIPVTSMQEAADKAARDYHHIFLTIGRQQLAPFAHDAHNLYVVRAVEPPQVALPQRHRLILSRGPFTLESEKKLMIDNQIDCVVTKNSGGPLTHAKLDAARDLGIDVVMVQRPQLPKVTHVATSAAEVAEIIDSL
- soluble on expression in E. coli: not soluble

Sequence: NPAIAMTEKEIKEYGFPFDARFCSLPLVHADDLKQIFGRYASEVCCRYLRPFDSDYYTLATKNFYQTDIAALDPTAVVGGEDTIRGLMRVATEVCFVIESGKPGAFHPRIHFEKSFRYAHLSLEEKKAWQRLSDDYFHKRNDDLWKQEALSRLIPLLSSTDMLVCVEDLGMIPPAVPVVMEQLQLLSLILERISKEPGQDFADMSRQPYCSVCTTSTHDMAPLRLWWQENELPRRHYYSMILGEKGTAPETCTPETARRILRQHLLSTSMLAIFPLADWLSLSGELQGIVAPEDEQINKPEISDHYWRYRMPISIESLSEDYRELNESIASLIRTSGRG
- soluble on expression in E. coli: not soluble

Sequence: MYQTKITGNRLYHTVSKGYGDSVTLFGKTDQGETPMSLLVIALSSCVTMCVQGFYHRQFQQDTLAVSVEASYEEEVFELLVRIDDVLDDKKKADLLAYIGTYCRVKQLLKPEVTVTITLEGLSHV
- soluble on expression in E. coli: not soluble
